Measured values taken from the supplement of paper PMC7877785.
± gives the uncertainty stated by the source.

Assay: self-splicing fitness, log relative to wild type (ln ratio); higher = more splicing; Tetrahymena group I intron in knt gene, E. coli kanamycin selection, DiMSum; sequences stand for … in CUCUCU…GGAGGGAAAAGUUAUCAGGCAUGCACCUGGUAGCUAGUCUUUAAACCAAUAGAUUGCAUCGGUUUAAAAGGCAAGACCGUCAAAUUGCGGGAAAGGGGUCAACAGCCGUUCAGUACCAAGUCUCAGGGGAAACUUUGAGAUGGCCUUGCAAAGGGUAUGGUAAUAAGCUGACGGACAUGGUCCUAACCACGCAGCCAAGUCCUAAGUCAACAGAUCUUCUGUUGAUAUGGAUGCAGUUCACAGACUAAAUGUCGGUCGGGGAAGAUGUAUUCUUCUCAUAAGAUAUAGUCGGACCUCUCCUUAAUGGGAGCUAGCGGAUGAAGUGAUGCAACACUGGAGCCGCUGGGAACUAAUUUGUAUGCGAAAGUAUAUUGAUUAGUUUUGGAGUACUCGUGGUCG
Method in brief: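 Pooled colonies went to amplicon sequencing on an Illumina HiSeq 2500 after six replicate transformations. The plates were LB agar with 100 μg/mL carbenicillin, 50 μM IPTG and 0.2% rhamnose, with or without 25 μg/mL kanamycin, incubated overnight at 37°C or 30°C. The E. coli BL21(DE3) library had all eight P1ex-region intron nucleotides randomised, the intron placed in the knt kanamycin-resistance gene on pET-22b(+). DiMSum fitness is the error-weighted combination of replicate fold changes, kanamycin against none, normalised to wild type.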

Row | Sequence | self-splicing fitness (ln) (30 °C) | self-splicing fitness (ln) (37 °C)
1 | UUGAAGCAAUAUUACGUGAU | -2.29 ± 0.11 | -1.3 ± 0.16
2 | UUGAAGCAAUAUUACGUGUC | -2.93 ± 0.21 | -2.47 ± 0.24
3 | UUGAAGCAAUAUUACGUGUG | -0.963 ± 0.056 | -0.69 ± 0.072
4 | UUGAAGCAAUAUUACGUUAU | -2.08 ± 0.099 | -0.402 ± 0.1
5 | UUGAAGCAAUAUUACGUUUU | -2.7 ± 0.2 | -2.52 ± 0.3
6 | UUGCAGCAAUAUUACGAAAC | -3.32 ± 0.41 | -1.87 ± 0.45
7 | UUGCAGCAAUAUUACGAAAU | -2.39 ± 0.22 | -2.33 ± 0.39
8 | UUGCAGCAAUAUUACGAAGU | -2.38 ± 0.23 | -1.75 ± 0.36
9 | UUGCAGCAAUAUUACGAAUA | -1.66 ± 0.1 | -0.197 ± 0.13
10 | UUGCAGCAAUAUUACGACAA | -0.619 ± 0.087 | 0.212 ± 0.1
11 | UUGCAGCAAUAUUACGACUG | -2.52 ± 0.19 | -1.72 ± 0.2
12 | UUGCAGCAAUAUUACGAUAA | -0.501 ± 0.11 | 0.0102 ± 0.12
13 | UUGCAGCAAUAUUACGAUUA | -0.176 ± 0.12 | 0.339 ± 0.087
14 | UUGCAGCAAUAUUACGCAAC |  | -2.11 ± 0.22
15 | UUGCAGCAAUAUUACGCAGC | -2.41 ± 0.41 | -1.83 ± 0.3
16 | UUGCAGCAAUAUUACGCCUA | -0.384 ± 0.084 | 0.346 ± 0.11
17 | UUGCAGCAAUAUUACGCCUG | -2.63 ± 0.15 | -1.6 ± 0.19
18 | UUGCAGCAAUAUUACGCGGC |  | -2.28 ± 0.46
19 | UUGCAGCAAUAUUACGCUCA | -0.833 ± 0.18 | -0.278 ± 0.17
20 | UUGCAGCAAUAUUACGGACA | -0.355 ± 0.074 | -0.669 ± 0.091
21 | UUGCAGCAAUAUUACGGCUC | -0.757 ± 0.094 | -0.29 ± 0.14
22 | UUGCAGCAAUAUUACGGCUU | 0.193 ± 0.069 | 0.35 ± 0.095
23 | UUGCAGCAAUAUUACGGGAG | -1.53 ± 0.11 | -1.58 ± 0.13
24 | UUGCAGCAAUAUUACGUGAC | -1.55 ± 0.11 | -0.799 ± 0.13
25 | UUGCAGCAAUAUUACGUGGC |  | -2.93 ± 0.32
26 | UUGCAGCAAUAUUACGUUAA | -1.55 ± 0.1 | -0.515 ± 0.089
27 | UUGGAGCAAUAUUACGAGCG | -2.64 ± 0.3 | -0.508 ± 0.32

Row | Sequence | self-splicing fitness (ln) (30 °C) | self-splicing fitness (ln) (37 °C)
28 | UUGGAGCAAUAUUACGAGUU | -4.04 ± 0.26 | -3.45 ± 0.34
29 | UUGGAGCAAUAUUACGAUAA | -2.08 ± 0.26 | 0.881 ± 0.28
30 | UUGGAGCAAUAUUACGAUUA | -0.16 ± 0.41 | -1.3 ± 0.39
31 | UUGGAGCAAUAUUACGAUUU | -3.2 ± 0.21 | -2.86 ± 0.29
32 | UUGGAGCAAUAUUACGCAAA | -2.95 ± 0.44 | -2.54 ± 0.41
33 | UUGGAGCAAUAUUACGCUUU | -2.75 ± 0.23 | -2.3 ± 0.5
34 | UUGGAGCAAUAUUACGGCGU |  | -2.29 ± 0.35
35 | UUGGAGCAAUAUUACGGGAG | -4.02 ± 0.39 | -2.62 ± 0.31
36 | UUGGAGCAAUAUUACGGGCA |  | -1.45 ± 0.35
37 | UUGGAGCAAUAUUACGGGUC | -3.74 ± 0.34 | 
38 | UUGGAGCAAUAUUACGUAAG | -2.23 ± 0.26 | -0.995 ± 0.24
39 | UUGGAGCAAUAUUACGUCUC | -2.96 ± 0.33 | -2.41 ± 0.33
40 | UUGGAGCAAUAUUACGUGAA | -2.62 ± 0.21 | -1.27 ± 0.2
41 | UUGGAGCAAUAUUACGUGCG | -1.73 ± 0.28 | -0.739 ± 0.21
42 | UUGGAGCAAUAUUACGUUCG | -2.23 ± 0.16 | -0.989 ± 0.17
43 | UUGGAGCAAUAUUACGUUUC | -3.77 ± 0.43 | -3.44 ± 0.42
44 | UUGUAGCAAUAUUACGACAA | -0.0967 ± 0.15 | -0.283 ± 0.15
45 | UUGUAGCAAUAUUACGACGC | -2.8 ± 0.44 | -0.663 ± 0.36
46 | UUGUAGCAAUAUUACGCACU | 0.662 ± 0.21 | 0.253 ± 0.19
47 | UUGUAGCAAUAUUACGCGCA | -0.824 ± 0.17 | 0.43 ± 0.19
48 | UUGUAGCAAUAUUACGCUGG | -1.38 ± 0.15 | -1.77 ± 0.23
49 | UUGUAGCAAUAUUACGGUAG | -0.909 ± 0.18 | -0.181 ± 0.2
50 | UUGUAGCAAUAUUACGUCGC | -3.54 ± 0.46 | 
51 | UUGUAGCAAUAUUACGUCUU | -0.945 ± 0.16 | -0.491 ± 0.19
52 | UUGUAGCAAUAUUACGUGCU | -3.17 ± 0.27 | -1.54 ± 0.21
53 | UUGUAGCAAUAUUACGUGGC |  | -2.15 ± 0.47
54 | UUUAAGCAAUAUUACGAAGC | -1.88 ± 0.32 | -0.328 ± 0.42

Row | Sequence | self-splicing fitness (ln) (30 °C) | self-splicing fitness (ln) (37 °C)
55 | UUUAAGCAAUAUUACGAUGC | -1.41 ± 0.37 | 
56 | UUUAAGCAAUAUUACGCAAA | -1.59 ± 0.38 | -0.938 ± 0.28
57 | UUUAAGCAAUAUUACGCACU | -0.382 ± 0.1 | -0.128 ± 0.12
58 | UUUAAGCAAUAUUACGCCCA | 0.412 ± 0.32 | 0.619 ± 0.37
59 | UUUAAGCAAUAUUACGCGGU | -3.46 ± 0.26 | -1.85 ± 0.23
60 | UUUAAGCAAUAUUACGGAUG | -1.56 ± 0.1 | -0.852 ± 0.13
61 | UUUAAGCAAUAUUACGGCCC | 0.344 ± 0.32 | 
62 | UUUAAGCAAUAUUACGGGGU | -3.7 ± 0.22 | -1.7 ± 0.19
63 | UUUAAGCAAUAUUACGGGUA | -2.25 ± 0.13 | -0.422 ± 0.11
64 | UUUAAGCAAUAUUACGGGUC | -3.19 ± 0.35 | -2.25 ± 0.35
65 | UUUAAGCAAUAUUACGUGAA | -0.503 ± 0.093 | -0.616 ± 0.095
66 | UUUAAGCAAUAUUACGUGGU | -2.88 ± 0.16 | -2.62 ± 0.21
67 | UUUAAGCAAUAUUACGUGUG | -1.24 ± 0.096 | -0.602 ± 0.093
68 | UUUCAGCAAUAUUACGAAAA | -1.02 ± 0.15 | -0.793 ± 0.15
69 | UUUCAGCAAUAUUACGAACG | -0.381 ± 0.11 | 0.41 ± 0.14
70 | UUUCAGCAAUAUUACGAAUC | -1.94 ± 0.18 | -1.31 ± 0.24
71 | UUUCAGCAAUAUUACGACGA | -0.00347 ± 0.1 | 0.236 ± 0.12
72 | UUUCAGCAAUAUUACGCACG | -1.05 ± 0.12 | -0.0521 ± 0.13
73 | UUUCAGCAAUAUUACGCCCA | -1.19 ± 0.22 | -0.699 ± 0.22
74 | UUUCAGCAAUAUUACGCCCG | -0.734 ± 0.22 | 0.939 ± 0.3
75 | UUUCAGCAAUAUUACGCCUU | -1.58 ± 0.2 | -0.883 ± 0.2
76 | UUUCAGCAAUAUUACGCGGA | -2.2 ± 0.14 | -1.54 ± 0.15
77 | UUUCAGCAAUAUUACGCUCU | -1.2 ± 0.093 | -0.182 ± 0.11
78 | UUUCAGCAAUAUUACGGCUG | -4.1 ± 0.46 | -1.84 ± 0.27
79 | UUUCAGCAAUAUUACGGGCC | -4.27 ± 0.46 | -2.37 ± 0.37
